Where a chain is given by its changes, count along the chain named.
T1: human IL-5 with his-tag (rhIL-5-his) (human, UniProt P05113 20-134)
T1 sequence: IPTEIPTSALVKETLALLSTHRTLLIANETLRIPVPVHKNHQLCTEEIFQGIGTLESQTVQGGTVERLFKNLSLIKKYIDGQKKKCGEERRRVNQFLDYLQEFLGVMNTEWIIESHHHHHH

T2: cyno IL-5 with his-tag (cyno (paragraph 156 says rhesus), UniProt P48093 20-134 (rhesus entry))
T2 construct: also called rhesus IL-5 with His-tag; monkey IL-5
T2 sequence: T1 sequence with T7A, D80G

B1: h1780-017 (antibody, human IgG1, kappa, V domains shown)
VH: EVQLVQSGAEVKKPGASVKVSCKASGYTFTEYLIHWVRQAPGQGLEWIGYINPYSGGTVYNEKFKSRATLTVDKSISTAYMEFSRLRSDDTAVYYCARDGGYSDPLDYWGQGTMVTVSS
VL: DTVLTQSPATLSLSPGERATLSCRASEGLTSYMHWYQQKPGQAPRLLIYKASNLASGVPARFSGSGSGTDFTLTISSLEPEDFATYFCQQNWNDPWTFGGGTKVEIKR
B2: Hu39D10 (antibody, human IgG4 S228P, kappa, V domains shown)
VH: EVQLVESGGGLVQPGGSLRLSCAVSGLSLTSNSVNWIRQAPGKGLEWVGLIWSNGDTDYNSAIKSRFTISRDTSKSTVYLQMNSLRAEDTAVYYCAREYYGYFDYWGQGTLVTVSS
VL: DIQMTQSPSSLSASVGDRVTITCLASEGISSYLAWYQQKPGKAPKLLIYGANSLQTGVPSRFSGSGSATDYTLTISSLQPEDFATYYCQQSYKFPNTFGQGTKVEVKR
notes: Anti-IL-5 antibody of WO2012083370A1, used as positive control; also called positive control; positive antibody
B3: mAb1773 (antibody, V domains shown)
VH: EVQLQQSLAELVRPGASVTLSCTASGFNIKNTYIHWVKQRPEQGLEWIGRIDPANGDTKHGPKFQGKATITADTSSNTAYLQFSSLTSEDTAIYYCFRYGIYPDHWGQGTPLTVSS
VL: QIVLTQSPALMSASPGEKVTMTCSASSSVNYIYWYQQKPRSSPKPWIYLTATLASGVPARFSGSGSGTSFSLTISRMEAEDAATYYCQQWNSYPYTFGGGTKLEIE
notes: Murine hybridoma antibody
B4: mAb1780 (antibody, V domains shown)
VH: QVKLLQSGAALVKPGDSVKMSCKASDYTFTEYLIHWVKQSQGRSLEWIGYINPYSGGTVYNEKFKSKATLTVDKFSSTAYMEFRRLTFEDSAIYYCARDGGYSDPLDYWGQGVMVTVSS
VL: DTVLTQSPALAVSPGERVSISCRASEGLTSYMHWYQQKPGQQPKLLIYKASNLASGVPARFSGSGSGTDFTLTIDPVEADDAATYFCQQNWNDPWTFGGGTKLELK
notes: Murine hybridoma antibody
B5: mAb1779 (antibody, V domains shown)
VH: QVKLLQSGAALVKPGDSVKMSCKASGYTFTDYIIHWVKQSHGKSLEWIGYFNPNSGGSNYNENFKRKATLTADKSSSTAYLEFSRVTSEDSAIYYCGRRIAWDHWYFDFWGPGTMVTVSS
VL: DIQMTQSPASLSASLGETVSIECLASEGISNDVAWYQQKSGRSPQLLVYAASRLQDGVPSRFSGSGSGTRYFFKISGMQPEDEADYFCQQGYKTPLTFGSGTKLEIK
notes: Murine hybridoma antibody
B6: h1773-007 (antibody, human IgG1, kappa, V domains shown)
VH: EVQLVESGGGLVQPGGSLKLSCAASGFTISNTYIHWVKQASGKGLEWIGRIDPAVGDTKHGPKFQGRFTISADDSKNTAYLQMNSLKTEDTAVYYCFRYGIYPDHWGQGTLVTVSS
VL: DIQLTQSPSSLSASVGDRVTITCSASSSVNYIYWYQQKPGKSPKPWIYLTATLASGVPSRFSGSGSGTDFTLTISSLQPEDFATYYCQQWNSYPYTFGGGTKVEIKR
B7: h1706-006 (antibody, human IgG1, kappa, V domains shown)
VH: EVQLVESGGGLVQPGGSLRLSCAASGFTFSHYYMAWVRQAPGKGLEWVSSINYEGNSAYYGDSVKGRFTISRDNSKNTLYLQMNSLRAEDTAVYYCATETLRESLDYWGQGTMVTVSS
VL: DIQMTQSPSSVSASVGDRVTITCRASQDIGNYLSWYQQKPGKSPKLLIYSASNLEVGVPSRFSGSGSGTDFTLTISSLQPEDFATYYCLQHKQFPRTFGGGTKVEIKR
notes: Constant regions as for h1706-003
B8: h1706-007 (antibody, human IgG1, kappa, V domains shown)
VH: B7 VH with S49T, V93T
VL: B7 VL
B9: h1705-007 (antibody, human IgG1, kappa, V domains shown)
VH: B7 VH with N52S, N56D, S57I, A58T, T98S, E99Q, L105F, M113L
VL: B7 VL with G30A, S50G, A51T, G66R, H91D, Q93E
B10: h1706-004 (antibody, human IgG1, kappa, V domains shown)
VH: B7 VH with S49T, V93T
VL: B7 VL with S43A
B11: h1705-011 (antibody, human IgG1, kappa, V domains shown)
VH: B7 VH with S49T, N52S, N56D, S57I, A58T, V93T, T98S, E99Q, L105F, M113L
VL: B7 VL with G30A, L47V, S50G, A51T, G66R, T69S, F71Y, Y87F, H91D, Q93E
B12: h1705-010 (antibody, human IgG1, kappa, V domains shown)
VH: B7 VH with N52S, N56D, S57I, A58T, T98S, E99Q, L105F, M113L
VL: B7 VL with G30A, L47V, S50G, A51T, G66R, T69S, F71Y, Y87F, H91D, Q93E
B13: h1705-004 (antibody, human IgG1, kappa, V domains shown)
VH: B7 VH with N52S, N56D, S57I, A58T, T98S, E99Q, L105F, M113L
VL: B7 VL with G30A, S43A, S50G, A51T, H91D, Q93E
B14: h1706-003 (antibody, human IgG1, kappa, V domains shown)
VH: B7 VH
VL: B7 VL with S43A
B15: h1705-005 (antibody, human IgG1, kappa, V domains shown)
VH: B7 VH with S49T, N52S, N56D, S57I, A58T, V93T, T98S, E99Q, L105F, M113L
VL: B7 VL with G30A, S43A, S50G, A51T, H91D, Q93E
B16: h1779-014 (antibody, human IgG1, kappa, V domains shown)
VH: EVQLVQSGAEVKKPGASVKVSCKASGYTFTDYIIHWVKQAPGQGLEWIGYFNPNSGGSNYNENFKRKATMTADKSISTAYLEFSRLRSEDTAVYYCARRIAWDHWYFDFWGQGTMVTVSS
VL: DIQMTQSPSSLSASVGDRVTITCLASEGISNDVAWYQQKPGKSPKLLVYAASRLQDGVPSRFSGSGSGTDYTFTISSLQPEDIATYYCQQGYKTPLTFGQGTKLEIKR
notes: See recheck
B17: h1705-003 (antibody, human IgG1, kappa, V domains shown)
VH: B7 VH with N52S, N56D, S57I, A58T, T98K, E99Q, L105F, M113L
VL: B7 VL with G30A, S43A, S50G, A51T, H91D, Q93E
B18: h1705-006 (antibody, human IgG1, kappa, V domains shown)
VH: B7 VH with N52S, N56D, S57I, A58T, T98K, E99Q, L105F, M113L
VL: B7 VL with G30A, S50G, A51T, G66R, H91D, Q93E
B19: h1705-009 (antibody, human IgG1, kappa, V domains shown)
VH: B7 VH with N52S, N56D, S57I, A58T, T98K, E99Q, L105F, M113L
VL: B7 VL with G30A, L47V, S50G, A51T, G66R, T69S, F71Y, Y87F, H91D, Q93E

Each molecule was assayed against T1, human IL-5 with his-tag (rhIL-5-his) (assay: cell-based or functional assay).
With B1 the “IC50 of blocking IL-5 induced eosinophil adhesion” value was 0.0212 µg/mL. B2 was tested, and the “IC50 of blocking IL-5 induced eosinophil adhesion” value was 0.0118 µg/mL.

What follows are molecules tested against T2, cyno IL-5 with his-tag (assay: Biacore T200, antibody captured on protein A chip, antigen in flow, 1:1 Langmuir).
Description: (§1) The affinity of the murine IL-5 antibody to be tested with human IL-5 was measured by Biacore T200 (GE) instrument.
(§2) The protein A biosensor chip was used to affinity capture of the molecules to be tested, and then the antigen (recombinant human and cyno IL-5 prepared in Example 1) flowed through the surface of the chip, and the reaction signal was detected in real time with the Biacore T200 instrument to obtain the binding and dissociation curves. After the dissociation of each experimental cycle was completed, the biosensor chip was washed and regenerated with glycine-hydrochloric acid regeneration solution (pH 1.5). BIA evaluation version 4.1 GE software was used to fit the data against (1:1) Langmuir model, and the affinity value was obtained and shown in Table 13.
Work on B3 yielded a Kd of 0.476 nM. B4 was tested, and the Kd was 0.312 nM. B5 was tested, and the Kd was 9.98 nM.

These molecules were tested against T1, human IL-5 with his-tag (rhIL-5-his) in the same assay as above.
Description: as §1, §2
Work on B3 yielded a Kd of 0.129 nM. Work on B4 yielded a Kd of 0.0899 nM. In the case of B5, the Kd is reported as 0.458 nM.

Biological target: T1, human IL-5 with his-tag (rhIL-5-his)
Experiment: cell-based or functional assay
Remark: another data set of the same source
B6 was tested, and the “IC50 of inhibition of IL-5 induced TF1 cell proliferation” value was 0.38 nM. With B1 the “IC50 of inhibition of IL-5 induced TF1 cell proliferation” value was 0.16 nM. With B7 the “IC50 of inhibition of IL-5 induced TF1 cell proliferation” value was 0.34 nM. B8 was tested, and the “IC50 of inhibition of IL-5 induced TF1 cell proliferation” value was 0.28 nM. B9 was tested, and the “IC50 of inhibition of IL-5 induced TF1 cell proliferation” value was 0.25 nM. B10 was tested, and the “IC50 of inhibition of IL-5 induced TF1 cell proliferation” value was 0.3 nM. With B11 the “IC50 of inhibition of IL-5 induced TF1 cell proliferation” value was 0.28 nM. B12 was tested, and the “IC50 of inhibition of IL-5 induced TF1 cell proliferation” value was 0.3 nM. In the case of B13, the “IC50 of inhibition of IL-5 induced TF1 cell proliferation” value is reported as 0.3 nM. B14 was tested, and the “IC50 of inhibition of IL-5 induced TF1 cell proliferation” value was 0.31 nM. In the case of B15, the “IC50 of inhibition of IL-5 induced TF1 cell proliferation” value is reported as 0.3 nM. B16 was tested, and the “IC50 of inhibition of IL-5 induced TF1 cell proliferation” value was 0.2 nM. For B2, the “IC50 of inhibition of IL-5 induced TF1 cell proliferation” value was 0.3 nM.

Each molecule was assayed against T1, human IL-5 with his-tag (rhIL-5-his) (assay: FACS blocking: biotin-IL-5 (100 ng/ml) binding to IL-5Rα/β-CHOS cells, antibody diluted).
Description: Particular method was as follows: CD-CHO comprising […] and […] zeozin was used to culture CHO-S-IL-5Rα and β. During cell culture, the concentration should not exceed 3×10⁶ cells/ml. IL-5Rα/β-CHOS cells in good condition were centrifuged (at 1000 rpm, 5 min), and washed once with 10% FBS in PBS, and the cells were counted, the cell concentration was adjusted to 4×10⁶ cells/ml, and 25 μl was taken out and added into a round-bottom 96-well plate. The antibody to be tested was diluted with PBS solution comprising 10% FBS. The initial concentration was 200 μg/ml, and diluted at 1:10 for 8 gradient dilutions. 25 μl of 100 ng/ml IL-5 labeled by a biotin labeling kit (Tojin Chemical, LK03) was added, and fully mixed with 50 μl of diluted antibody at each concentration, and added into 96-well plate that has been added with cells, and incubated at 4° C. for 1 hour. After the incubation, the sample was centrifuged at 4° C. (400 g, 5 min), and the supernatant was removed, the plated was washed with 200 μl of pre-cooled PBS by centrifugation, repeated for twice; PE-Avidin secondary antibody diluted at 1:1333 was added and incubated in the dark at 4° C. for 40 min, centrifuged at 4° C.
IgG (antibody) was tested, and the IC50 was 8.78 µg/mL. With B1 the IC50 was 0.016 µg/mL. B16 showed an IC50 of 0.0496 µg/mL. Work on B2 yielded an IC50 of 0.0251 µg/mL.

Biological target: T1, human IL-5 with his-tag (rhIL-5-his)
Experiment: Biacore T200, antibody captured on protein A chip, antigen in flow, 1:1 Langmuir
Remark: another data set of the same source
Description: The affinity of the humanized IL-5 antibody to be tested with human IL-5 was measured by Biacore T200 (GE) instrument.
as §2, with “(prepared” for “(recombinant human and cyno IL-5 prepared”, “14.” for “13.”
B6 was tested, and the Kd was 0.207 nM. With B1 the Kd was 0.0778 nM. In the case of B7, the Kd is reported as 0.0173 nM. With B9 the Kd was 0.0221 nM. Work on B11 yielded a Kd of 0.023 nM. B12 showed a Kd of 0.0205 nM. With B13 the Kd was 0.0214 nM. B17 gave a Kd of 3.35 nM. In the case of B14, the Kd is reported as 0.0189 nM. With B18 the Kd was 4.11 nM. In the case of B19, the Kd is reported as 4.55 nM. B15 was tested, and the Kd was 0.0216 nM. B16 gave a Kd of 0.412 nM.

The molecules below were run against T1, human IL-5 with his-tag (rhIL-5-his) (assay: Biacore).
Description: as §1, §2
B3 was tested, and the Kd was 0.129 nM. B4 gave a Kd of 0.0899 nM. Molecule B5 has a Kd of 0.458 nM.

Source: patent publication US20220144937A1 (JIANGSU HENGRUI MEDICINE, published 2022)
